According to US20190352376A1:
Values joined by “and” are separate entries in the source; they are usually repeats but may differ in a detail not shown here. Equal entries are not always repeated. Where two headings read alike, the source gives them in different places.

B1: F211-9D1 (antibody, V domains shown)
VL: DIVMSQSPSSLAVSVGEKVTMSCKSSQSLLNSRNQKNHLAWYQQKPGQSPKLLIYWASTRESGVPDRFSGDGSGTDFTLTISSVKAEDLAVYYCQQYYTYRTFGGGTKLEIK
VH: DVQLQESGPGLVKPSQSLSLTCSVTGYSITSDYYWNWIRQFPGNKLEWMAYIGYDGSKNYNPSLKNRISITRDTSKNQFFLKLNSVTTDDTATYYCTRDRANWDDYFDYWGQGTTLTVSS
B2: F211-10A9 (antibody, V domains shown)
VL: DIVMTQSPSSLAMSVGQKVTMSCKSSQSLLNSDTQKNFLAWYQQKPGQSPKILVYFASTKESGVPDRFIGSGSGTDFTLTITSVQAEDLADYFCQQYYSIPLTFGAGTKLELK
VH: QIQLQQSGPELVKPGAPVKISCKASGYTFTDYYIHWVNQRPGQGLEWIGYIYPGNGHTVYNQKFKVRATLTADNPSSTAYLQLNSLTSEDSGVYFCAYDLFNYWGQGTLVTVSA
B3: F211-9D1 (antibody, V domains shown)
VH: DVQLQESGPGLVKPSQSLSLTCSVTGYSITSDYYWNWIRQFPGNKLEWMAYIGYDGSKNYNPSLKNRISITRDTSKNQFFLKLNSVTTDDTATYYCTRDRANWDDYFDYWGQGTTLTVSS
VL: DIVMSQSPSSLAVSVGEKVTMSCKSSQSLLNSRNQKNHLAWYQQKPGQSPKLLIYWASTRESGVPDRFSGDGSGTDFTLTISSVKAEDLAVYYCQQYYTYRTFGGGTKLEIK
B4: F211-10A9 (antibody, V domains shown)
VH: QIQLQQSGPELVKPGAPVKISCKASGYTFTDYYIHWVNQRPGQGLEWIGYIYPGNGHTVYNQKFKVRATLTADNPSSTAYLQLNSLTSEDSGVYFCAYDLFNYWGQGTLVTVSA
VL: DIVMTQSPSSLAMSVGQKVTMSCKSSQSLLNSDTQKNFLAWYQQKPGQSPKILVYFASTKESGVPDRFIGSGSGTDFTLTITSVQAEDLADYFCQQYYSIPLTFGAGTKLELK
B5: F211-11H12 (antibody, V domains shown)
VH: DVQLQESGPGLVKPSQSLSLTCSVTGYSITSDYYWNWIRQFPGNKLEWMAYIGYDGTKNYNPSLKNRISITRDTSKNQFFLKLNSVTTDDTATYYCTRDRANWDDYFDYWGQGTTLTVSS
VL: DIVMSQSPSSLAVSVGEKVTMSCKSSQSLLNSRNQKNHLAWYQQKPGQSPKLLIYWASTRESGVPDRFTGDGSGTDFTLTISSVKAEDLAVYYCQQYYTYRTFGGGTKLEIK
B6: CHO-10A9 (antibody, V domains shown)
VL: DIVMTQSPSSLAMSVGQKVTMSCKSSQSLLNSDTQKNFLAWYQQKPGQSPKILVYFASTKESGVPDRFIGSGSGTDFTLTITSVQAEDLADYFCQQYYSIPLTFGAGTKLELK
VH: QIQLQQSGPELVKPGAPVKISCKASGYTFTDYYIHWVNQRPGQGLEWIGYIYPGNGHTVYNQKFKVRATLTADNPSSTAYLQLNSLTSEDSGVYFCAYDLFNYWGQGTLVTVSA
B7: F211-11H12 (antibody, V domains shown)
VL: DIVMSQSPSSLAVSVGEKVTMSCKSSQSLLNSRNQKNHLAWYQQKPGQSPKLLIYWASTRESGVPDRFTGDGSGTDFTLTISSVKAEDLAVYYCQQYYTYRTFGGGTKLEIK
VH: DVQLQESGPGLVKPSQSLSLTCSVTGYSITSDYYWNWIRQFPGNKLEWMAYIGYDGTKNYNPSLKNRISITRDTSKNQFFLKLNSVTTDDTATYYCTRDRANWDDYFDYWGQGTTLTVSS
B8: CHO-11H12 (antibody, V domains shown)
VL: DIVMSQSPSSLAVSVGEKVTMSCKSSQSLLNSRNQKNHLAWYQQKPGQSPKLLIYWASTRESGVPDRFTGDGSGTDFTLTISSVKAEDLAVYYCQQYYTYRTFGGGTKLEIK
VH: DVQLQESGPGLVKPSQSLSLTCSVTGYSITSDYYWNWIRQFPGNKLEWMAYIGYDGTKNYNPSLKNRISITRDTSKNQFFLKLNSVTTDDTATYYCTRDRANWDDYFDYWGQGTTLTVSS

What was measured:
[1] = target: T1, peptide-conjugate (Example 1; lactosyl-Ser-…-Cys coupled to KLH) (influenza virus)
[2] = target: T1, peptide-conjugate (Example 1; …); remark: listed apart in the source
[3] = target: peptide of Example 1 (influenza virus); assay: SPR, mAb captured on anti-mouse Fc, peptide injected
[4] = target: peptide of Example 1 (influenza virus); assay: SPR, mAb captured on anti-mouse Fc, peptide injected; average
[5] = target: hemagglutinin of H5N1 A/Indonesia/05/2005 (influenza virus H5N1 A/Indonesia/05/2005)
[6] = target: hemagglutinin of H5N1 A/Indonesia/05/2005 (influenza virus H5N1 A/Indonesia/05/2005); assay: dot blot, 4M urea; rHA (Prot. Sc.), dot 7
[7] = target: hemagglutinin of H5N1 A/Vietnam/1203/2004 (influenza virus H5N1 A/Vietnam/1203/2004); assay: dot blot, 4M urea; rHA (Prot. Sc.), dot 8
[8] = target: hemagglutinin of H7N7 A/Netherlands/219/2003 (influenza virus H7N7 A/Netherlands/219/2003); assay: dot blot, 4M urea; rHA (Prot. Sc.), dot 9
[9] = target: hemagglutinin of H9N2 A/Hong Kong/1073/1999 (influenza virus H9N2 A/Hong Kong/1073/1999); assay: dot blot, 4M urea; rHA (Prot. Sc.), dot 10
Non-related protein = assay: dot blot, 4M urea; negative control, dot 16

| Binder | Kd [4] | signal intensity (arbitrary fluorescent units) [5] | signal intensity (arbitrary fluorescent units) [6] | signal intensity (arbitrary fluorescent units) [7] | signal intensity (arbitrary fluorescent units) [8] | signal intensity (arbitrary fluorescent units) [9] | signal intensity (arbitrary fluorescent units) (Non-related protein) | other results |
| --- | --- | --- | --- | --- | --- | --- | --- | --- |
| B1 |  |  |  |  |  |  |  | EC50 (read off the curve) [1]: 0.03 µg/mL |
| B2 | 0.338 nM |  |  |  |  |  |  | EC50 (read off the curve) [2]: 0.05 µg/mL and 0.03 µg/mL; Kd [3]: 0.338 nM |
| B3 |  | 46700 | 10100 | 46800 | 425 | 3760 | 47 |  |
| B4 |  | 28600 | 165 | 8260 | 42000 | 2970 | 34 |  |
| B5 |  | 43100 | 22200 | 45900 | 488 | 3570 | 38 |  |
| B6 | 0.365 nM |  |  |  |  |  |  |  |
| B7 | 0.465 nM |  |  |  |  |  |  | Kd [3]: 0.465 nM |
| B8 | 0.639 nM |  |  |  |  |  |  |  |
